This note sets out measurements from patent EP4431526A1 (Emfret Analytics GmbH & Co. KG, dated 2024).

Residue numbers refer to the chain shown, from its start. Ends that are not written are not given here.

Experiment [1] concerns the target T1, human GPVI-Fc fusion protein (human, UniProt Q9HCN6 21-267, limits assumed).
T1 construct: also called human GPVI protein antigen
T1 sequence (looked up): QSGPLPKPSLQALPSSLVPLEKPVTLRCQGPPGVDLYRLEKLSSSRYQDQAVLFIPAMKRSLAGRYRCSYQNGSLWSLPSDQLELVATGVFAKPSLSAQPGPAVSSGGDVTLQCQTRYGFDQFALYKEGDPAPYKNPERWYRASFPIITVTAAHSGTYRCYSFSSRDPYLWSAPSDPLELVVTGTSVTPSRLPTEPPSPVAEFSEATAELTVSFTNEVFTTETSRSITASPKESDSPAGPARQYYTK
The experiment can be described thus: BLI (Octet), GPVI-Fc on biosensor, 1:1 fit. (BLI is a label-free optical method that tracks binding on a fibre tip over time.)

Another experiment deals with T2, GPVI peptide 201V-E215 (human, not fully specified).
T2 construct: On the array as peptide-cellulose conjugate; as soluble (cleavable, Fmoc-rink-amide linker) peptide in the neutralisation; also called Val201 to Glu215
T2 peptide: VVTGTSVTPSRLPTE
In words: peptide microarray, HRP anti-mouse IgG.

A further experiment deals with T3, GPVI peptide 246S-P260 (human, not fully specified).
T3 construct: On the array as peptide-cellulose conjugate; as soluble (cleavable, Fmoc-rink-amide linker) peptide in the neutralisation; also called Ser246 to Pro260
T3 peptide: SITASPKESDSPAGP
The experiment can be described thus: peptide microarray, HRP anti-mouse IgG.

B1: HC0 LC0 chimeric Fab fragment (Fab, V domains shown)
VH: QVQLKESGPGLVQPSQSLSITCTVSGFSLTSYGVTWVRQPPGKGLEWLGVIWGDGSTNYHSGLRSRLSISRDDSKSQVFLKLNSLQTDDTATYYCAKPIYYDFDDDAMDYWGQGTSVTVSS
VL: DIVMTQSQKFMSTSVGDRVSVTCKASQNVGTYVAWFQQKPGQSPKTLIYSASYRCSGVPDRFTGSGSGTDFTLTISNVQSDDLAEYFCHQYNNYPLTFGAGTKLELRR
notes: Murine variable domains with human Ig constant domains, expressed in CHO; also called HC0 LCD; chimeric control antibody
In experiment [1], B1 came in with a Kd of 0.427 nM, a koff of 0.000212 s⁻¹ and a kon of 496000 M⁻¹ s⁻¹.

B2: Emf6.1 IgG (mouse IgG2a kappa) (antibody, V domains shown)
VH: B1 VH
VL: DIVMTQSQKFMSTSVGDRVSVTCKASQNVGTYVAWFQQKPGQSPKTLIYSASYRCSGVPDRFTGSGSGTDFTLTISNVQSDDLAEYFCHQYNNYPLTFGAGTKLELR
notes: Mouse monoclonal IgG2a kappa from hybridoma (subclone of Emf6)
As for B2, the binding result in the experiment with GPVI peptide 201V-E215 and in the experiment with GPVI peptide 246S-P260 was “binds” throughout.

B3: HC5 LC1 humanized Fab (Fab, V domains shown)
VH: QVQLQESGPGLVKPSETLSLTCTVSGFSLTSYGVTWIRQPPGKGLEWIGVIWGDGSTNYHSGLRSRVTISVDTSKNQFSLKLSSVTAADTAVYYCAKPIYYDFDDDAMDYWGQGTSVTVSS
VL: EIVLTQSPSSLSASVGDRVTITCKASQNVGTYVAWFQQKPGKAPKSLIYSASYRCSGVPSKFSGSGSGTDFTLTISSLQPEDFATYYCHQYNNYPLTFGQGTKLEIKR
notes: also called VH5:VL1
For the molecule B3, in experiment [1], binding was characterised by a dissociation constant (Kd) of 0.333 nM, the koff worked out at 0.000261 s⁻¹ and the kon is 782000 M⁻¹ s⁻¹.

B4: HC3 LC1 humanized Fab (Fab, V domains shown)
VH: QVQLVESGGGVVQPGRSLRLSCVASGFSLTSYGVTWVRQAPGKGLEWVAVIWGDGSTNYHSGLRSRFTISRDNSKNTMFLQMNSLRADDTAVYYCAKPIYYDFDDDAMDYWGQGTLVTVSS
VL: B3 VL
notes: also called VH3:VL1
In the case of B4, in experiment [1], the Kd was 0.353 nM, the koff is 0.000587 s⁻¹ and the kon was determined as 1.66e+06 M⁻¹ s⁻¹.

B5: HC4 LC2 humanized Fab (Fab, V domains shown)
VH: B4 VH with V23A, A40S, F67L, M78L, F79Y, Q81E, A87T, D88E, V92T, L116K
VL: B3 VL with E1D, V3Q, L4M, K39R, S76N, L104V
notes: also called VH4:VL2
In experiment [1], B5 displayed a Kd of 0.395 nM, an off-rate constant (koff) of 0.000508 s⁻¹ and a kon of 1.29e+06 M⁻¹ s⁻¹.

B6: HC5 LC4 humanized Fab (Fab, V domains shown)
VH: B3 VH
VL: DIVMTQSPATLSLSPGDRATLSCKASQNVGTYVAWYQQKPGQAPRLLIYSASYRCSGIPARFSGSGSGTDFTLTISSLQSEDFAVYYCHQYNNYPLTFGGGTKVEIKR
notes: also called VH5:VL4
For B6, in experiment [1], the affinity, expressed as Kd, was 0.554 nM; the koff turned out to be 0.000319 s⁻¹; the kon is 576000 M⁻¹ s⁻¹.

B7: HC2 LC3 humanized Fab (Fab, V domains shown)
VH: B3 VH with Q1E, Q5V, S116L
VL: B3 VL with E1D, V3Q, S10T, F36Y, S46L, K61R, D70E, E81D, A84T, L104V
notes: also called VH2:VL3
In the case of B7, in experiment [1], the affinity, expressed as Kd, was 0.25 nM; the koff stood at 0.000144 s⁻¹; the kon was determined as 576000 M⁻¹ s⁻¹.

B8: HC4 LC3 humanized Fab (Fab, V domains shown)
VH: B4 VH with V23A, A40S, F67L, M78L, F79Y, Q81E, A87T, D88E, V92T, L116K
VL: B3 VL with E1D, V3Q, S10T, F36Y, S46L, K61R, D70E, E81D, A84T, L104V
notes: also called VH4:VL3
In experiment [1], B8 registered a Kd of 0.593 nM, a koff of 0.000655 s⁻¹ and a kon of 1.1e+06 M⁻¹ s⁻¹.

B9: HC1 LC3 humanized Fab (Fab, V domains shown)
VH: B3 VH with V24A, N76S, S116L
VL: B3 VL with E1D, V3Q, S10T, F36Y, S46L, K61R, D70E, E81D, A84T, L104V
notes: also called VH1:VL3
In experiment [1], B9 had a Kd of 0.284 nM, a dissociation rate constant (koff) of 0.000221 s⁻¹ and a kon of 777000 M⁻¹ s⁻¹.

B10: HC5 LC2 humanized Fab (Fab, V domains shown)
VH: B3 VH
VL: B3 VL with E1D, V3Q, L4M, K39R, S76N, L104V
notes: also called VH5:VL2
On to B10, for which, in experiment [1], the Kd was 0.367 nM, the koff stood at 0.00024 s⁻¹ and the kon came to 655000 M⁻¹ s⁻¹.

B11: HC1 LC1 humanized Fab (Fab, V domains shown)
VH: B3 VH with V24A, N76S, S116L
VL: B3 VL
notes: Monovalent 50 kDa Fab from CHO; also called VH1:VL1
Regarding B11, in experiment [1], binding was put at a Kd of 0.413 nM, the koff is 0.000332 s⁻¹ and the kon came out at 804000 M⁻¹ s⁻¹.

B12: HC2 LC1 humanized Fab (Fab, V domains shown)
VH: B3 VH with Q1E, Q5V, S116L
VL: B3 VL
notes: also called VH2:VL1
In experiment [1], B12 had a Kd of 0.269 nM, a koff of 0.000189 s⁻¹ and a kon of 703000 M⁻¹ s⁻¹.

B13: HC3 LC3 humanized Fab (Fab, V domains shown)
VH: B4 VH
VL: B3 VL with E1D, V3Q, S10T, F36Y, S46L, K61R, D70E, E81D, A84T, L104V
notes: also called VH3:VL3
In experiment [1], B13 had a Kd of 0.299 nM, an off-rate constant (koff) of 0.000561 s⁻¹ and a kon of 1.87e+06 M⁻¹ s⁻¹.

B14: HC3 LC2 humanized Fab (Fab, V domains shown)
VH: B4 VH
VL: B3 VL with E1D, V3Q, L4M, K39R, S76N, L104V
notes: also called VH3:VL2
Regarding B14, in experiment [1], the Kd was determined as 0.215 nM, the koff was found to be 0.000362 s⁻¹ and the kon is 1.68e+06 M⁻¹ s⁻¹.

B15: HC2 LC2 humanized Fab (Fab, V domains shown)
VH: B3 VH with Q1E, Q5V, S116L
VL: B3 VL with E1D, V3Q, L4M, K39R, S76N, L104V
notes: also called VH2:VL2; EMF602
Take B15: in experiment [1], the Kd came out at 0.175 nM, the koff was determined as 0.000162 s⁻¹ and the kon was 931000 M⁻¹ s⁻¹.

B16: HC5 LC3 humanized Fab (Fab, V domains shown)
VH: B3 VH
VL: B3 VL with E1D, V3Q, S10T, F36Y, S46L, K61R, D70E, E81D, A84T, L104V
notes: also called VH5:VL3
In experiment [1], B16 returned a dissociation constant Kd of 0.637 nM, a koff of 0.000437 s⁻¹ and a kon of 686000 M⁻¹ s⁻¹.

B17: HC1 LC4 humanized Fab (Fab, V domains shown)
VH: B3 VH with V24A, N76S, S116L
VL: B6 VL
notes: also called VH1:VL4
In the case of B17, in experiment [1], the Kd was found to be 0.496 nM, the dissociation rate constant (koff) turned out to be 0.000333 s⁻¹ and the kon was 671000 M⁻¹ s⁻¹.

B18: HC4 LC1 humanized Fab (Fab, V domains shown)
VH: B4 VH with V23A, A40S, F67L, M78L, F79Y, Q81E, A87T, D88E, V92T, L116K
VL: B3 VL
notes: also called VH4:VL1
In experiment [1], B18 displayed a Kd of 0.425 nM, an off-rate (koff) of 0.000339 s⁻¹ and a kon of 797000 M⁻¹ s⁻¹.

B19: HC2 LC4 humanized Fab (Fab, V domains shown)
VH: B3 VH with Q1E, Q5V, S116L
VL: B6 VL
notes: also called VH2:VL4
In experiment [1], B19 returned a Kd of 0.693 nM, a koff of 0.0011 s⁻¹ and a kon of 1.59e+06 M⁻¹ s⁻¹.

B20: HC3 LC4 humanized Fab (Fab, V domains shown)
VH: B4 VH
VL: B6 VL
notes: also called VH3:VL4
In the case of B20, in experiment [1], binding was characterised by a dissociation constant (Kd) of 0.431 nM, the koff amounted to 0.000618 s⁻¹ and the kon was 1.43e+06 M⁻¹ s⁻¹.

B21: HC4 LC4 humanized Fab (Fab, V domains shown)
VH: B4 VH with V23A, A40S, F67L, M78L, F79Y, Q81E, A87T, D88E, V92T, L116K
VL: B6 VL
notes: also called VH4:VL4
In experiment [1], B21 gave a Kd of 0.572 nM, an off-rate constant (koff) of 0.000412 s⁻¹ and a kon of 720000 M⁻¹ s⁻¹.

What is called Kd is the constant that tells how readily two partners part at equilibrium. Low readings indicate a tighter complex, high ones a looser complex. The koff is the first-order rate constant of dissociation. As a reminder, the kon is the second-order rate constant of association.
